US20260201327A1

Target: CD40 in the antibody expressing cells (rabbit plasmablasts from peripheral blood) (rabbit)
Test: cell-based or functional assay

| Substance | B cell growth after 7 days, batch sort in BM1, Fc-CD40-L against LZ-CD40-L (18 kDa) (% higher than LZ-CD40-L (18 kDa)) | B cell growth after 7 days, batch sort in BM1, cytokines + CD40-L construct 7.5 ug/ml, against the reference EL4-B5 + TSN (% more than reference) | cell growth after 7 days, batch sort in BM1, cytokines + Fc-CD40-L 7.5 ug/ml (#4) against the reference TSN + EL4-B5 (% higher than reference) | cell growth after 7 days, batch sort in BM2, 2.5 ug/ml Fc-CD40-L (#12) against 7.5 ug/ml (#10) [times lower] | cell growth after 7 days, batch sort in BM2, 5.0 ug/ml Fc-CD40-L (#11) against 7.5 ug/ml (#10) [times lower] | cell growth after 7 days, batch sort in BM2, cytokines + 2.5 ug/ml Fc-CD40-L (#12) against the reference #9 (% lower than reference) | cell growth after 7 days, batch sort in BM2, cytokines + 5.0 ug/ml Fc-CD40-L (#11) against the reference #9 (% lower than reference) | cell growth after 7 days, batch sort in BM2, cytokines + 7.5 ug/ml Fc-CD40-L (#10) against the reference TSN + EL4-B5 (#9) (% higher than reference) | B cell growth after 7 days, batch sort in BM1, cytokines + CD40-L construct 7.5 ug/ml, against the reference EL4-B5 + TSN (% of reference) | DoE parameter estimate for plasmablast proliferation (cell number after 7 days, 50 cells per well, feeder cell and TSN replacement) |
| --- | --- | --- | --- | --- | --- | --- | --- | --- | --- | --- |
| Fc-CD40-L (human IgG1-Fc fragment linked to the 18 kDa rabbit CD40-L fragment) (Fc fusion) | 32 | 43 | 23 | 1.4 | 1.1 | 27 | 5 | 6 | – | – |
| LZ-CD40-L EctoD (ligand) | – | – | – | – | – | – | – | – | 68 | 139 |
